# According to patent publication US12649008B2, “Peptide receptor radionuclide therapy” (The Regents of the University of California, priority 2020, dated 2026):
# Experiments:
# mouse serum proteins = test: Serum protein (albumin) binding by ultrafiltration, mouse serum; type: in vitro ADME; settings: 37° C.
# Description: The devices were pre-treated with PBS containing Tween 20 (5% v/v) as disclosed in Hausner 2007, followed by triplicate rinses with PBS. An aliquot of each formulated radiotracer in PBS (≤25 μL, 20-60 KBq) was thoroughly mixed with 0.5 mL serum at 37° C. in a microfuge tube. The mixture was incubated at 37° C. for 5 min and an aliquot (50 μL) of was transferred to a tube for γ-counting. The remaining sample was transferred to a Centrifree Ultrafiltration device and centrifuged for 40 min. at 1500×g at ambient temperature (20-24° C.). An aliquot (50 μL) of the filtrate was transferred to a tube for γ-counting. For each radiotracer, a blank was run using 0.5 mL PBS/Tween 20 (5% v/v) instead of serum (n=4) to determine non-specific binding. Following γ-counting, the protein-bound radioactivity was calculated by subtracting the counts measured in the filtrate aliquot (i.e., not protein bound) from the counts in the corresponding serum aliquot. The data are expressed as mean±standard deviation of fraction of radioactivity bound to protein after subtraction of non-specific binding determined in the blank.
# [1] = In vitro serum stability, human serum; type: in vitro ADME; settings: 37° C., read-out: stability in human serum (intact radiotracer)
# Description: Mouse or human serum (500 μl, both purchased from Millipore Sigma) was combined with an aliquot of the formulated radiotracer (100-200 μCi) and incubated at 37° C. Aliquots (100-200 μl) were drawn for analysis at 1 and 2 h post-incubation for the ^68Ga radiotracers and 1 and 24 h post-incubation for ^177Lu radiotracers, mixed with absolute ethanol (500 μl, 4° C.), and centrifuged (2300× g, 3 min) to precipitate out serum proteins. The supernatant was diluted with HPLC Solvent A and analyzed by radio-HPLC to determine the fraction of intact radiotracer as disclosed in Hausner et al., “In vitro and in vivo evaluation of the effects of aluminum [^18F]fluoride radiolabeling on an integrin αvβ6-specific peptide” Nuclear medicine and biology.
# [2] = Blocking study (cold peptide 10 min before radiotracer), biodistribution; type: in vivo, mice; settings: female, nu/nu nude, mouse, BxPC-3 tumor, iv, total radioactivity; 4 h p.i.; DOTA-ABM-5G 48 mg/kg 10 min before
# Description: (§1) Female nu/nu nude mice (6-8 weeks old) were purchased from Charles River Laboratories (Wilmington, MA, USA) and handled according to the UC Davis Institutional Animal Care and Use Committee. BxPC-3 cells (5×10^6) in 100 μl 1:1 GFR-Matrigel: serum-free RPMI were implanted subcutaneously into the left shoulder flank and allowed to grow for approximately 2 weeks (therapy study) and 3 weeks (0.5-1 cm in diameter, for imaging and biodistribution studies). All cells were evaluated with flow cytometry before injection to confirm integrin expression levels. Food and water were available ad libitum.
# (§2) For blocking studies, respective non-chelated cold peptide (30 mg/kg, 10 mg/mL (DOTA-5G) and 48 mg/kg, 16 mg/mL (DOTA-ABM-5G) solution in PBS) was injected 10 min. before the formulated radiotracer. At each time point, the mice (n=3/time point/radiotracer) were anesthetized and sacrificed. The tissues were collected, rinsed with PBS, and the radioactivity of each measured with a gamma counter. Radioactivity concentrations were calibrated, decay-corrected, and expressed as percent of injected dose per gram of tissue (% ID/g).
# BxPC-3 (αvβ6 (+)) tumors = test: as above; type: in vivo, mice; settings: 4 h p.i.
# Description: as §1, §2
# αvβ6 (+) BxPC-3 tumors = test: In vivo targeted radionuclide therapy; set-up: species or system mice
# Description: as §1
# For in vivo targeted radionuclide therapy, mice were implanted subcutaneously with BxPc-3 tumor cells 14 days before start of treatment. Mice were randomly chosen and divided into four treatment groups: Control Saline (Group 1, n=5); Control Peptide DOTA-ABM-5G (Group 2, n=6); 1×74 MBq [^177Lu]Lu DOTA-ABM-5G (Group 3, n=10); and 2×37 MBq [^177Lu]Lu DOTA-ABM-5G (Group 4, n=7). Average tumor volume at the start of the treatment was 14-218 mm^3. Group 2 received 20 μg of peptide DOTA-ABM-5G per mouse as a control. Group 3 received 74 MBq on day 14 post-tumor implant (treatment day 0), and Group 4 received two doses of 37 MBq on day 14 and 21 post-tumor implant (treatment days 0 and 7), at a specific activity of 18.5 MBq/nmol. Body weights and tumor volumes were measured the day before treatment, and twice a week post-treatment throughout the study. Tumor volume (TV) was determined according to the equation TV=(π/6)*L*W*H, where L is the longest axis, W is the axis perpendicular to L and H is perpendicular to the plane of L and W. End point determination was based on the longest axis of TV exceeding 2 cm, active ulceration, or compromised health of the mouse, including >20% loss of body weight from the start of the study. Survival curves are depicted as a Kaplan-Meier plot, using start of treatment as day 0.
smiles,measurement,setting,value
CNC(=O)C(CCCCNC(=O)C(CC(=O)O)NC(=O)CCCNC(=O)CCCc1ccc(I)cc1)NC(=O)CN1CCN2CCN3CCN(CC1)CC(=O)[O][177Lu]([O]C(=O)C2)[O]C(=O)C3 (centres unmarked) [[^177Lu]Lu DOTA-ABM-5G],albumin (serum protein) binding,mouse serum proteins,54.4±2.8%
same,remaining at 24 h,[1],≥ 97%
same,tissue uptake at 4 h,[2],4.12 %ID/g
same,change of BxPC-3 tumor uptake by blocking (Δ),BxPC-3 (αvβ6 (+)) tumors,−42%
same,median survival post-treatment,"αvβ6 (+) BxPC-3 tumors; Group 3, 1×74 MBq",82 days
same,median survival post-treatment,"αvβ6 (+) BxPC-3 tumors; Group 4, 2×37 MBq (days 0 and 7)",113 days
same,adverse events and weight loss during the study,"αvβ6 (+) BxPC-3 tumors; any group, 120 days",No adverse events and weight loss
same,adverse reaction to treatment in blood chemistry,"αvβ6 (+) BxPC-3 tumors; mouse, in vivo",no adverse reaction
